Laboratory results from US20250326860A1 (ADAGENE PTE, published 2025).
Values joined by “and” are separate entries in the source; they are usually repeats but may differ in a detail not shown here. Equal entries are not always repeated. Values belong to the binder of their own block, whether it stands above or below them.

Assays:
[1] = biological target: T1, human CD20 on cells (human B cells; Raji, SU-DHL-8, SU-DHL-4, A3KAW, NAMALWA) (human, UniProt P11836 1-297); experiment: flow cytometry, NAMALWA cells
T1 construct: whole, on cells
T1 sequence (looked up): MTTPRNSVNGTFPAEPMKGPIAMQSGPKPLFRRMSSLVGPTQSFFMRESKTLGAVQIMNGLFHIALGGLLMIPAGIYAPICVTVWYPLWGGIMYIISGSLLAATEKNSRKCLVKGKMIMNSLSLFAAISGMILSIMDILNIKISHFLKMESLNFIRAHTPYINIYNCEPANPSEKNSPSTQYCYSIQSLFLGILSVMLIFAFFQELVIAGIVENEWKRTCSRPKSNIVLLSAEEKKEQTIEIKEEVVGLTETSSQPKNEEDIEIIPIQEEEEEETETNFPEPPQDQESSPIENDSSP
Description: (§1) Raji, SU-DHL-8, SU-DHL-4, A3KAW and NAMALWA were B-cell lymphoma cell lines with various CD20 expression levels on cell surface. Briefly, the test antibodies were serial diluted and were incubated with the tumor cells on ice. After washing, the cells were subsequently incubated with the APC-labelled anti-human-Fc secondary antibody (BioLegend) on ice. The cells were then washed with PBS prior to analysis by the CytoFLEX flow cytometer (Beckman Coulter). The data was analyzed by FlowJo software.

[2] = biological target: T2, cynomolgus monkey CD3 on T cells (cynomolgus monkey, UniProt Q95LI5 22-198); experiment: flow cytometry, monkey CD4+ T cells
T2 construct: whole, on cells
T2 sequence (Q95LI5 22-198): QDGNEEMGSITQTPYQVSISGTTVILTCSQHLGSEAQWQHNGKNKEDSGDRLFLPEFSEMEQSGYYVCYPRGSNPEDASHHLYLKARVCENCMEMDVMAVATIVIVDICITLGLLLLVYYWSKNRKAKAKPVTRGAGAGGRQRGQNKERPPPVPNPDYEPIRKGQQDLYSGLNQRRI
Description: (§2) Binding of CD20xCD3 bispecific or SAFE-bispecific antibodies to purified human CD3+ T cells was determined by flow cytometry. Briefly, human or monkey PBMC were freshly purified with Ficoll gradient solution—Histopaque 1077 (Sigma) from a healthy donor and CD3+ T cells were isolated using EasySep™ Human T cell Enrichment Kit (StemCell). Before staining, […] human Fc receptors on CD3+ T cells were blocked with Human Fc Block (BD). Then cells were incubated with fluorescence labeled antibody mixture (APC-Cy7 Mouse Anti-human CD3, PerCP-CyTM5.5 Anti-human CD4 and FITC anti-human CD8) for 15 minutes at 4° C. After washing the cells once with PBS supplemented with 2% FBS, cells were aliquoted to 96-well plates at 2×10⁵ cells per well, and cells were incubated with serial diluted bispecific, SAFE-bispecific or IgG1 isotype control antibodies for 30 minutes at 4° C. After washing the cells twice with PBS supplemented with 2% FBS, cell surface bound antibody was detected by incubating the cells with APC-labeled mouse anti-human IgG Fc secondary antibody for 30 minutes at 4° C. Cells were washed and detected by FACS using Cytoflex (BeckMan) and data was analyzed by FlowJo. The mean fluorescence (MFI) of each antibody binding to human or monkey CD4+ T cells and CD8+ T cell populations were fitted with four-parameter non-linear regression to get EC₅₀ values by GraphPad Prism software.

[3] = biological target: T1, human CD20 on cells (human B cells; …); experiment: flow cytometry, SU-DHL-8 cells
Description: as §1

[4] = biological target: T3, human CD3 on cells (Jurkat cells, human T cells) (human, UniProt P07766 23-207); experiment: flow cytometry, human CD8+ T cells
T3 construct: whole, on cells
T3 sequence (P07766 23-207): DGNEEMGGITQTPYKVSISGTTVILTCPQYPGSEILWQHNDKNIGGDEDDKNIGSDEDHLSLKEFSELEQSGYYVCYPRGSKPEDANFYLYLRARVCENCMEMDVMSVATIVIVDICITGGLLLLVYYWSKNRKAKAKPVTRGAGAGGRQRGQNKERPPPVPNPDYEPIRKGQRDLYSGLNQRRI
Description: as §2

[5] = biological target: T2, cynomolgus monkey CD3 on T cells; experiment: flow cytometry, monkey CD8+ T cells
Description: as §2

[6] = biological target: T1, human CD20 on cells (human B cells; …); experiment: flow cytometry, A3KAW cells
Description: as §1

[7] = biological target: T3, human CD3 on cells (Jurkat cells, human …); experiment: flow cytometry, human CD3+ T cells
From the text: (§3) Human PBMCs were freshly isolated from the blood of healthy donors by density gradient centrifugation using Histopaque-1077 (Sigma). Human CD3+ T cells were further isolated from PBMCs using the Human T Cell Enrichment Kit (Stem Cell Technologies). Monkey PBMCs were isolated from a naïve cynomolgus monkey by density gradient centrifugation using Histopaque-1077 (Sigma). Monkey CD3+ T cells were isolated from PBMCs using the Pan T Cell Isolation Kit Non-Human Primate (Miltenyi Biotec). Purified human or monkey CD3+ T cells were stained with the testing antibodies as the primary antibody and the APC-labelled anti-human-Fc antibody (BioLegend) as the secondary antibody. After washing, the cells were analyzed on the CytoFLEX flow cytometer (Beckman Coulter) and the data was analyzed by FlowJo software.

[8] = biological target: T3, human CD3 on cells (Jurkat cells, human …); experiment: flow cytometry, human CD4+ T cells
Description: as §2

[9] = biological target: T1, human CD20 on cells (human B cells; …); experiment: flow cytometry, Raji cells
Description: as §1

[10] = biological target: T4, cynomolgus monkey CD20 on B cells (cynomolgus monkey, UniProt M4ZHZ6 1-297); experiment: flow cytometry, monkey B cells
T4 construct: whole, on cells
T4 sequence: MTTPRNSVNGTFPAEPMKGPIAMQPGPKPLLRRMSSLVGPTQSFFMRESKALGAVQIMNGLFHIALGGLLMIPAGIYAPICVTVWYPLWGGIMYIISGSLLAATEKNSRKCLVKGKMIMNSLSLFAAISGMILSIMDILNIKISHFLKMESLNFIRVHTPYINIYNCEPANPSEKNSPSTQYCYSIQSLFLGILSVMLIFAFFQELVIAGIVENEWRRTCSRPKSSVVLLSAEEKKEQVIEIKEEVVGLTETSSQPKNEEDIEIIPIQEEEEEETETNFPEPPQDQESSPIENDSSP
From the text: (§4) Human and monkey PBMCs were isolated as mentioned above. Human B cells were further isolated from PBMCs using the EasySep™ Human B Cell Isolation Kit (Stem Cell Technologies). Monkey B cells were isolated from PBMCs using the Non-Human B Primate Cell Isolation Kit (Stem Cell Technologies). Purified human or monkey B cells were stained with the testing antibodies as the primary antibody and the APC-labelled anti-human-Fc antibody (BioLegend) as the secondary antibody. After washing, the cells were analyzed on the CytoFLEX flow cytometer (Beckman Coulter) and the data was analyzed by FlowJo software.

[11] = biological target: T1, human CD20 on cells (human B cells; …); experiment: flow cytometry, human B cells
From the text: as §4

[12] = biological target: T1, human CD20 on cells (human B cells; …); experiment: flow cytometry, SU-DHL-4 cells
Description: as §1

[13] = biological target: T2, cynomolgus monkey CD3 on T cells; experiment: flow cytometry, monkey CD3+ T cells
From the text: as §3

[14] = biological target: T3, human CD3 on cells (Jurkat cells, human …); experiment: Jurkat cell binding
[15] = biological target: T3, human CD3 on cells (Jurkat cells, human …); experiment: Jurkat cell binding; remark: listed apart in the source

- EC50 [14]: 15.3 nM and 10.2 nM
B2: TY24051 (bispecific antibody)
light: not shown
heavy: not shown
chain: QAVVTQEPSLTVSPGGTVTLTCGSSTGAVTTSNYANWVQQKPGQAPRGLIGGTNKRAPGVPARFSGSLLGGKAALTLSGAQPEDEAEYYCALWYSNLWVFGGGTKLTVLRGGGGSGGGGSGGGGSGGGGSEVQLVESGGGLVQPGGSLRLSCAASGFTFNTYAMNWVRQAPGKGLEWVGRIRSKYNNYATYYADSVKGRFTISRDDSKNTLYLQMNSLRAEDTAVYYCVRHGNFGNSYVSWFAYWGQGTLVTVSSEPKSSDKTHTCPPCPAPELLGGPSVFLFPPKPKDTLMISRTPEVTCVVVDVSHEDPEVKFNWYVDGVEVHNAKTKPREEQYASTYRVVSVLTVLHQDWLNGKEYKCKVSNKALPAPIEKTISKAKGQPREPQVYTDPPSRDELTKNQVSLTCLVDGFYPSDIAVEWESNGQPENCYKTTPPVLDSDGSFFLYSKLTVDKSRWQQGNVFSCSVMHEALHNHYTQDSLSLSPGK
notes: also called parental HER2xCD3 bispecific antibody; anti-CD3 variant TAC2225

- EC50 [15]: 6.88 nM
B4: TY25525 (bispecific antibody, human IgG1, kappa, N297A)
light: not shown
heavy: not shown
chain: QAVVTQEPSLTVSPGGTVTLTCGSSTGAVTTSNYPNWVQQKPGQAPRGLIGGTNKRAPGVPARFSGSLLGGKAALTLSGAQPEDEAEYYCALWYSNLWVFGGGTKLTVLGGGGSGGGGSGGGGSGGGGSEVQLVESGGGLVKPGGSLRLSCAASGFTFSSYAINWVRQAPGKGLEWVGRIRSKYNNYATYYAESVKGRFTISRDDSKNTLYLQINSLRAEDTAVYYCVRHGNFGNSYVSYWAYWGQGTLVTVSSEPKSSDKTHTCPPCPAPELLGGPSVFLFPPKPKDTLMISRTPEVTCVVVDVSHEDPEVKFNWYVDGVEVHNAKTKPREEQYASTYRVVSVLTVLHQDWLNGKEYKCKVSNKALPAPIEKTISKAKGQPREPQVYTDPPSRDELTKNQVSLTCLVDGFYPSDIAVEWESNGQPENCYKTTPPVLDSDGSFFLYSKLTVDKSRWQQGNVFSCSVMHEALHNHYTQDSLSLSPGK

More lines, now with the values behind:

B1: TAC2392 (bispecific antibody)
light: QIVLTQSPSSLSASVGDRVTITCRASSSVSYIHWFQQKPGKSPKPLIYATSNLASGVPVRFSGSGSGTDYTLTISSLQPEDFATYYCQQWTSNPPTFGGGTKVEIKRTVAAPSVFIFPPSDEQLKSGTASVVCLLNNFYPREAKVQWKVDNALQSGNSQESVTEQDSKDSTYSLSSTLTLSKADYEKHKVYACEVTHQGLSSPVTKSFNRGEC
heavy: QVQLVQSGAEVKKPGASVKVSCKASGYTFTSYNMHWVRQAPGQGLEWMGAIYPGNGDTSYNQKFQGRVTITADKSISTAYMELSSLRSEDTAVYYCARSTYYGGDWYFNVWGAGTLVTVSSASTKGPSVFPLAPSSKSTSGGTAALGCLVKDYFPEPVTVSWNSGALTSGVHTFPAVLQSSGLYSLSSVVTVPSSSLGTQTYICNVNHKPSDTKVDKKVEPKSCDKTHTCPPCPAPPVAGPSVFLFPPKPKDTLMISRTPEVTCVVVDVKHEDPEVKFNWYVDGVEVHNAKTKPREEEYNSTYRVVSVLTVLHQDWLNGKEYKCKVSNKALPAPIEKTISKAKGQPREPQVYTLPPSREEMTKNQVSLTCDVSGFYPSDIAVEWESDGQPENNYKTTPPVLDSDGSFFLYSKLTVDKSRWEQGDVFSCSVMHEALHNHYTQKSLSLSPGK
chain: not shown
notes: also called CD20xCD3 bispecific antibody
- EC50 [1]: 592 nM
- Max MFI [1]: 447000 MFI
- EC50 [2]: 120 nM
- EC50 [3]: 48.6 nM
- Max MFI [3]: 3640 MFI
- EC50 [4]: 37.2 nM
- EC50 [5]: 58.6 nM
- EC50 [6]: 487 nM
- Max MFI [6]: 675000 MFI
- EC50 [7]: 6.92 nM
- max MFI [7]: 6490 MFI
- EC50 [8]: 62.1 nM
- EC50 [9]: 135 nM
- Max MFI [9]: 22000 MFI
- EC50 [10]: 83.8 nM
- max MFI [10]: 6020 MFI
- EC50 [11]: 12.6 nM
- max MFI [11]: 32300 MFI
- EC50 [12]: 26.9 nM
- Max MFI [12]: 2.29e+06 MFI
- EC50 [13]: 26.6 nM
- max MFI [13]: 3200 MFI

B3: TY25023 (bispecific antibody, human IgG1, kappa, N297A)
light: not shown
heavy: not shown
chain: EAVVTQEPSLTVSPGGTVTLTCGSSTGAVTTSNYPNWVQQKPGQAPRGLIGGTNKRAPGTPARFSGSLLGGKAALTLSGAQPEDEAEYYCALWYSDLWVFGGGTKLTVLGGGGSGGGGSGGGGSGGGGSEVQLVESGGGLVQPGGSLRLSCAASGFTFSTYAINWVRQAPGKGLEWVSRIRSKYNNYATYYAESVKDRFTISRDDSKNTLYLQINSLRAEDTAVYYCVRHGNFGTSYVSWFAYWGQGTLVTVSSEPKSSDKTHTCPPCPAPELLGGPSVFLFPPKPKDTLMISRTPEVTCVVVDVSHEDPEVKFNWYVDGVEVHNAKTKPREEQYASTYRVVSVLTVLHQDWLNGKEYKCKVSNKALPAPIEKTISKAKGQPREPQVYTDPPSRDELTKNQVSLTCLVDGFYPSDIAVEWESNGQPENCYKTTPPVLDSDGSFFLYSKLTVDKSRWQQGNVFSCSVMHEALHNHYTQDSLSLSPGK
notes: also called anti-CD3 variant TY24742
- EC50 [14]: > 1000 nM and 480 nM
